Laboratory results: article PMC6784111

Assays:
Assay in all cases: SPR; 40 RU of each antibody immobilized on a CM5 chip; oxMIF (MIF treated with 0.2% Proclin300) injected at 3–25 nM in HBS-EP (HEPES 10 mM, NaCl 150 mM, EDTA 3 mM, 0.005% Tween-20); BIAcore T200; 25 °C; 1:1 Langmuir model
BaxM159 variant 9-EIVLGE = target: BaxM159 variant 9-EIVLGE
[1] = target: BaxM159 variant 2-DIQMAQ-K (parental anti-oxMIF antibody with the heavy chain C-terminal lysine)
BaxM159 variant 6-EIVLGQ = target: BaxM159 variant 6-EIVLGQ
BaxM159 variant 8-DIQMGE = target: BaxM159 variant 8-DIQMGE
BaxM159 variant 3-EIVLAQ = target: BaxM159 variant 3-EIVLAQ
BaxM159 variant 7-EIVLAE = target: BaxM159 variant 7-EIVLAE
BaxM159 variant 5-DIQMAE = target: BaxM159 variant 5-DIQMAE
BaxM159 variant 4-DIQMGQ = target: BaxM159 variant 4-DIQMGQ
[2] = target: BaxM159 variant 1-DIQMAQ (parental anti-oxMIF antibody without the heavy chain C-terminal lysine)

B1: oxidized macrophage migration inhibitory factor (oxMIF) (natural protein)
chain: MPMFIVNTNVPRASVPDGFLSELTQQLAQATGKPPQYIAVHVVPDQLMAFGGSSEPCALCSLHSIGKIGGAQNRSYSKLLCGLLAERLRISPDRVYINYYDMNAANVGWNNSTFA
modifications: converted to its oxidized form by treatment with 0.2% Proclin300
BaxM159 variant 9-EIVLGE
  Kd: 1.4 nM
  koff: 0.00044 s⁻¹
  kon: 310000 M⁻¹ s⁻¹
[1]
  Kd: 3 nM
  koff: 0.00038 s⁻¹
  kon: 130000 M⁻¹ s⁻¹
BaxM159 variant 6-EIVLGQ
  Kd: 2.7 nM
  koff: 0.00064 s⁻¹
  kon: 260000 M⁻¹ s⁻¹
BaxM159 variant 8-DIQMGE
  Kd: 4.2 nM
  koff: 0.00054 s⁻¹
  kon: 130000 M⁻¹ s⁻¹
BaxM159 variant 3-EIVLAQ
  Kd: 1.5 nM
  koff: 0.00031 s⁻¹
  kon: 200000 M⁻¹ s⁻¹
BaxM159 variant 7-EIVLAE
  Kd: 2.4 nM
  koff: 0.00044 s⁻¹
  kon: 180000 M⁻¹ s⁻¹
BaxM159 variant 5-DIQMAE
  Kd: 2.5 nM
  koff: 0.0004 s⁻¹
  kon: 160000 M⁻¹ s⁻¹
BaxM159 variant 4-DIQMGQ
  Kd: 4.3 nM
  koff: 0.00056 s⁻¹
  kon: 160000 M⁻¹ s⁻¹
[2]
  Kd: 2.6 nM
  koff: 0.00029 s⁻¹
  kon: 110000 M⁻¹ s⁻¹
